Measurements taken from US20250145706A1 (SINABIOSOLUTION, published 2025).

Assays:
[1] = biological target: T1, soluble recombinant version of the IGLV3-21^R110-harboring B-cell receptor (monomeric human IgM, 170.5 kDa) (human); test: BLI (Octet), antibody captured on anti-human IgG Fc sensor, soluble BCR as analyte, 1:1 model
T1 construct: Produced in 293-HEK cells by transient expression as monomeric human IgM; It was the analyte in solution in the BLI assay; also called soluble IGLV3-21^R110 B-cell receptor; soluble BCR-fragment
Description: (§1) Kinetic assays were performed by first immobilizing the anti IGLV3-21^R110 antibodies onto biosensors through an indirect capturing reagent, anti-human IgG Fc antibody. Anti IGLV3-21^R110 antibodies were loaded at a concentration of […] to generate an anti IGLV3-21^R110 antibody capture level of between 0.30 and 0.34 nm. […] The anti IGLV3-21^R110 antibody capture biosensors were then submerged in wells containing the different concentrations of the soluble BCR-fragment for 900 seconds (association stage) followed by a dissociation step of 1200 seconds in running buffer. Steps were performed at a constant shake speed of 1000 rpm. All reagents were used as described by the manufacturer. Sensorgrams were generated after double reference correction (buffer and blank sensors) to compensate for both the natural dissociation of the capture anti IGLV3-21^R110 antibody and also non-specific binding of the soluble BCR-fragment to the sensor surface. […] (KD) were calculated based on the ratio of association (kₐ) and dissociation rate (kd) constants, obtained by fitting sensorgrams with a first order 1:1 binding model using the Fortebio Data Analysis software (Satorius).

[2] = biological target: T1, soluble recombinant version of the …; test: BLI (Octet), reference HC0-LC0
Description: as §1
For the KD values of all humanized antibodies, see Table 3.

T1 sequence (heavy, as listed by the source limits assumed, chain 1 of 2): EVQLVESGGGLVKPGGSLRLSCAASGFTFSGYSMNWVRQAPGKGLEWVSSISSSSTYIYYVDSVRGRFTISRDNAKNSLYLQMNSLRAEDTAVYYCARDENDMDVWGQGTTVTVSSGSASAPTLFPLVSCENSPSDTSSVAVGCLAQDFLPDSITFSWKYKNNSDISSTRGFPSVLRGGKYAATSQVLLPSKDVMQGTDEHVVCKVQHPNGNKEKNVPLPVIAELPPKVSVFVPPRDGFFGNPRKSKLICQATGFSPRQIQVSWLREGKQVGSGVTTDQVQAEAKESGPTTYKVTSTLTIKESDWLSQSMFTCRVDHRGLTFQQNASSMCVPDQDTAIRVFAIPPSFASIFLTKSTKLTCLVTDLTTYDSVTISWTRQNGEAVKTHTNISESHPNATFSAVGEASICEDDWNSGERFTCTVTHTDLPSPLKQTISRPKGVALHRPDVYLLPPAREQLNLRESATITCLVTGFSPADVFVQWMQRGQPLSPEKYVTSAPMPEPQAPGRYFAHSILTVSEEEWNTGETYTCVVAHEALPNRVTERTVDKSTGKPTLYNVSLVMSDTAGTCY
T1 sequence (light, as listed by the source limits assumed, chain 2 of 2): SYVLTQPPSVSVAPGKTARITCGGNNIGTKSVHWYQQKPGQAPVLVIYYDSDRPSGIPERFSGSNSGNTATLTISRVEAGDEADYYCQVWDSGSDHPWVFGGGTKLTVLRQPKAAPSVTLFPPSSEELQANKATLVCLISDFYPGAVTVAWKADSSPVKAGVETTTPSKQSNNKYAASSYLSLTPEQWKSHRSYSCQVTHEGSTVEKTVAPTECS

| Binder | Kd [1] | fold of the dissociation constant against chimeric antibody HC0-LC0 [2] |
| --- | --- | --- |
| HC7-LC6 (antibody, human IgG1, kappa, V domains shown, Humanized IgG1 / kappa) VH: QVQLQESGPGLVKPSETLSLTCTVSGFSLTSYGIHWIRQSPGRGLEWIGVIWRGGGTDSNAAFMSRITISRDTSKTQVSLKLGSVTAADTAIYYCARSRYDEEESMNYWGQGTSVTVSS VL: EIVLTQSPSSLSASVGDSVTITCRASGNIHSYLAWYQQKPGKAPKLLIYNAKTLADGVPSRFSGSGSGTQYTLTISSLQPEDFATYYCQHFWNTPPTFGAGTKLELKR | 0.175 nM | ≤ 2 fold |
| HC7-LC8 (antibody, human IgG1, kappa, V domains shown, Humanized IgG1 / kappa) VH: QVQLQESGPGLVKPSETLSLTCTVSGFSLTSYGIHWIRQSPGRGLEWIGVIWRGGGTDSNAAFMSRITISRDTSKTQVSLKLGSVTAADTAIYYCARSRYDEEESMNYWGQGTSVTVSS VL: EIVLTQSPATLSLSPGERATLSCRASGNIHSYLAWYQQKPGQAPRLLIYNAKTLADGIPARFSGSGSGTDYTLTISSLEPEDFASYYCQHFWNTPPTFGAGTKLELKR | 0.249 nM | – |
| HC7-LC7 (antibody, human IgG1, kappa, V domains shown, Humanized IgG1 / kappa) VH: QVQLQESGPGLVKPSETLSLTCTVSGFSLTSYGIHWIRQSPGRGLEWIGVIWRGGGTDSNAAFMSRITISRDTSKTQVSLKLGSVTAADTAIYYCARSRYDEEESMNYWGQGTSVTVSS VL: QIQLTQSPSFLSASVGDSVTITCRASGNIHSYLAWYQQKPGKAPQLLIYNAKTLADGVPSRFSGSGSGTEYTLTISSLQPEDFATYYCQHFWNTPPTFGAGTKLELKR | 0.269 nM | – |
| HC7-LC9 (antibody, human IgG1, kappa, V domains shown, Humanized IgG1 / kappa) VH: QVQLQESGPGLVKPSETLSLTCTVSGFSLTSYGIHWIRQSPGRGLEWIGVIWRGGGTDSNAAFMSRITISRDTSKTQVSLKLGSVTAADTAIYYCARSRYDEEESMNYWGQGTSVTVSS VL: EIVLTQSPGTLSLSPGERATLSCRASGNIHSYLAWYQQKPGQAPRLLIYNAKTLADGIPDRFSGSGSGTDYTLTISRLEPEDFAVYYCQHFWNTPPTFGAGTKLELKR | 0.313 nM | – |
| HC0-LC0 (antibody, human IgG1, kappa, V domains shown, Chimeric: mAb01-01 VH/VL on human IgG1 / human Ig kappa constant domains; also called chimeric antibody HC0-LC0; HC01 LC01) VH: QVQLQQSGPGLVQPSQSLSITCTVSGFSLTSYGIHWVRQSPGKGLEWLGVIWRGGGTDSNAAFMSRLSITKDNSKSQVFFKMNSLQADDTAIYYCARSRYDEEESMNYWGQGTSVTVSS VL: QIVLTQSPASLSASVGETVTITCRASGNIHSYLAWYQQKQGKSPQLLVYNAKTLADGVPSRFSGSGSGTQYSLKINSLQPEDFGSYYCQHFWNTPPTFGAGTKLELKR | 0.121 nM | – |
